Data as given in US9163032B2, “Esters of DCPLA and methods of treatment using the same” (Blanchette Rockefeller Neurosciences Institute, priority 2011, dated 2015).

How the values were obtained:
[1] = test system: primary human cortical neurons; experiment: 40 day culture of human primary cortical neurons: survival, synapses, branching; format: cell-based; details: 100 nM
Protocol: To examine the effects of PKC-ε activation, cultured human cortical neurons in serum-free artificial medium were exposed to 100 nM DCPLA-ME added every three days, along with 50% medium replacement, for 40 days. More specifically, human primary cortical neurons were grown in Neuronal Medium (ScienCell Cat No#1521) containing neuronal growth supplement (NGS) (Sciencell Cat No#1562).
Cells were plated on poly-l-lysine (0.001%) coated plates at a density of >10000 cells/cm2. Half of the media was replaced by new media every 3 days. DCPLA-ME was dissolved in 100% ethanol and added at 100 nM final concentration. Fresh DCPLA-ME (100 nM) was added every 3 days during media change. The experiments were continued for 40 days.
Human primary neurons (ScienCell Research Laboratories, USA) were thawed and plated on poly-L-lysine coated plates at a density of 10,000 cells per cm^2 and were maintained in neuronal medium (DMEM+high glucose+neuronal growth supplement, ScienCell Research Laboratories, USA) following the recommended method. Primary human neurons were then treated with either DCPLA-ME (100 nM) or bryostatin 1 (0.27 nM) for 40 days. Fresh drug was added every third day with 50% media change.

Wistar rats = experiment: Visible platform test (sensorimotor activity and escape motivation); format: in vivo, rat; details: oral DCPLA-ME 5.3 or 16.0 mg/kg
Protocol: Water maze spatial learning and memory task (2 training trials/day for 4 days) was used to evaluate effects of oral DCPLA-ME on learning and memory in rats. A visible platform test was conducted after the end of the experiments to evaluate whether the treatment might result in an altered sensorimotor activity and escape motivation.
At the end of the experiments, the rats were also tested in a visible platform test to evaluate whether the treatment might result in an altered sensorimotor activity and escape motivation.

[2] = test system: Phosphatidylserine (C2) Binding Site; experiment: 3H-DCPLA-ME binding to rat brain slices with C1 and C2 competitors (film-autoradiography)
Protocol: To determine the binding site of DCPLA-ME, ^3H-DCPLA-ME was incubated with rat brain slices in the absence and presence of known C1 and C2 competitors. More specifically, rat brain sections were fixed with formaldehyde, sliced, and incubated with (1)^3H-DCPLA-ME alone; (2)^3H-DCPLA-ME with DCPLA; (3)^3H-DCPLA-ME with Phorbol ester; or (4)^3H-DCPLA-ME and Bryostatin 1. After incubation, the slices were washed with a buffer made of 130 mM NaCl, 5 mM MgCl, 5 mM KCl, 1 mM EGTA, and 0.1% bovine serum albumin in 10 mM HEPES-NaOH, pH 7.4, dried, and analyzed with film-autoradiography.

[3] = test system: differentiated human SH-SY5Y cells; experiment: Neuroprotection against ASPD, MTT assay, differentiated SH-SY5Y cells; format: cell-based; details: ASPD alone, compared to untreated cells
Protocol: For differentiation, SH-SY5Y cells were maintained in medium containing 2% serum and treated with 10 μM all-trans-retinoic acid (RA) for 72 hr. Thereafter, the cells were treated with 0.27 nM Bryostatin 1 for 72 hrs. The medium was changed every 3 days with fresh supplementation of RA.
(§1) Viability of cells was measured by MTT assay. MTT (i.e., 3-(4,5-dimethylthiazol-2-yl)-2,5-diphenyltetrazolium bromide) is a tetrazolium salt that is cleaved to formazan by the succinate dehydrogenase, which is only active in viable cells. After solubilization of the formazan, the amount of dye can be quantified with a microplate reader at 570 nm along with a reference of 630 nm. For the MTT assay, 5×10^4 primary rat hippocampal neurons from 18-day-old embryonic Sprague-Dawley rat brains or SH-SY5Y cells were plated on each well of 24-well plates coated with poly-D-lysine. After treatment, the cells were washed with 1× PBS and were incubated with 200 μl of 1 mg/ml MTT solution (Sigma, USA) at 37° C. for 2 hr. Then the MTT-solution was removed and the cells were lysed with 200 μl isopropanol containing 0.04 M HCl and […] for 10 min. Finally, the reading was taken at 570 nm and 630 nm. All the samples were done in triplicate and the data were represented as the percentage of control.
In ASPD-treated cells, the viability was 77.15±0.49% (p<0.0001, n=6) compared to the untreated cells.

[4] = test system: rat primary hippocampal neurons; experiment: Neurotoxic effect of Aβ1-42 oligomers, MTT viability assay; format: cell-based; details: 20 hr
Protocol: Amylospheroids (ASPDs) and Aβ monomers were prepared following Hoshi, M., et al. (2003) Proc Natl Acad Sci USA 100, 6370-6375, and Noguchi, A., et al. (2009) J Biol Chem 284, 32895-32905. Briefly, Aβ1-42 was dissolved in 1,1,1,3,3,3-hexafluoro-2-propanol and incubated overnight at 4° C. and then 3 hr at 37° C. The dissolved Aβ1-42 was then lyophilized in 1.5 ml polypropylene centrifuge tubes at 40 nmol/tube concentration. For preparing the ASPDs, the lyophilized Aβ was dissolved in phosphate buffered saline (PBS) without Ca^2+ or Mg^2+ at less than 50 μM concentration and rotated for 14 hr at 4° C. After incubation, the Aβ solution was purified using a 100 kDa molecular mass cutoff filter (Amicon Ultra, Millipore) and the high-molecular weight fraction was saved to obtain the most toxic ASPDs. Aβ derived diffusible ligands (ADDLs) were produced as previously described. See Lambert, M. P et al., Proc. Natl. Acad. Sci. USA, 1998, 95: 6448-6453. Briefly, Aβ1-42 was solubilized at 5 mM in dimethyl sulfoxide, diluted to 100 μM in F12k medium and was incubated at 4° C. for 24 hr. The solution was centrifuged at 14000×g for 10 min at 4° C. and the supernatant was used as the ADDLs.
as §1
To assess the neurotoxic effect of different sized oligomers, rat primary hippocampal neurons were treated with variable concentrations of these Aβ1-42 species for 20 hr. Viability of the treated cells was compared to untreated cells using the MTT assay described above.

Row | Compound | number of synapses ([1]; 30 day old neurons) | Expression levels of PKCε, PSD-95 and synaptophysin ([1]; 40 days, compared to control or bryostatin 1-treated cells) | sensorimotor ability and escape motivation (Wistar rats) | binding site [2] | 3H-DCPLA-ME binding, 30 nM competitor ([2]; 30 nM competitor, rat brain slices) | 3H-DCPLA-ME binding, 1 μM competitor ([2]; 1 μM competitor, rat brain slices) | viability of SH-SY5Y cells [3] | Viability of primary neuron ([4]; 0.5 nM) | Viability of primary neuron ([4]; 1 nM) | Viability of primary neuron ([4]; 2 nM) | Viability of primary neuron ([4]; 5 nM) | Viability of primary neuron ([4]; 10 nM) | Viability of primary neuron ([4]; 50 nM) | Viability of primary neuron ([4]; 50 nM, listed as ASPDs) | Viability of primary neuron ([4]; 500 nM)
1 | CCCCCC1CC1CC1CC1CCCCCCCC(=O)OC (stereo not drawn) [DCPLA-ME, DCPLA methyl ester] | significantly increased | significantly higher | did not affect rats' sensorimotor ability and motivation for an escape | phosphatidylserine (C2) site | 64% | 37% | – | – | – | – | – | – | – | – | –
2 | ASPD: Amylospheroids from Aβ1-42, 100 kDa filter retentate, containing 39 monomers on average | – | – | – | – | – | – | 77.15±0.49% | 96.12 ± 0.733 % of control | 89.64 ± 5.99 % of control | 87.75 ± 0.94 % of control | 70.95 ± 1.89 % of control | 68.68 ± 0.84 % of control | 57.55 ± 3.35 % of control | 57.1±4.9 % of control | 52.94 ± 3.75 % of control
